This is an account of results in PMC4743851.

For test [1], the target named is Syntaxin-1A (endogenous, INS-1 832/13 cells) (rat (endogenous in INS-1 832/13)) (UniProt P32851). Briefly: co-IP; IP with 2 μg Syn-3 or Syn-1A antibody from 1 mg INS-1 832/13 lysate; cells at basal 0.8 mM glucose or stimulated with 16.7 mM glucose plus 10 nM GLP-1 for 30 min; blots quantified as percent recovery of total lysate input.
Test [2] deals with Syntaxin-3 (endogenous, INS-1 832/13 cells) (rat (endogenous in INS-1 832/13)) (UniProt Q08849). Described as above.
Test [3] addresses Syn-1A expressed in HEK293 cells (UniProt P32851). Briefly: co-IP; HEK293 cells co-transfected with Cav1.3 or Cav2.3 and Syn-1A or Syn-3; IP with anti-Syn-1A or anti-Syn-3 antibody; blots quantified as percent recovery of total lysate input.
Test [4] deals with Syn-3 expressed in HEK293 cells (UniProt Q08849). The test is described as above.
For test [5], the target named is GST-Syn-1A (cytoplasmic domain a.a. 1–265) (UniProt P32851). Briefly: pull-down; GST-Syn-1A (1-265) or GST-Syn-3 (1-263) on glutathione agarose beads incubated with lysate of HEK293 cells transfected with Cav1.3 or Cav2.3, 4°C, 2 h; washed with 20 mM HEPES pH 7.4, 150 mM KOAc, 1 mM EDTA, 1 mM MgCl2, 5% glycerol, 0.1% Triton X-100; blots quantified as percent recovery.

For test [6], the target named is GST-Syn-3 (cytoplasmic domain a.a. 1–263) (UniProt Q08849). Described as above.

Syntaxin-3 (endogenous, INS-1 832/13 cells) (rat (endogenous in INS-1 832/13)), sequence (Q08849 whole entry): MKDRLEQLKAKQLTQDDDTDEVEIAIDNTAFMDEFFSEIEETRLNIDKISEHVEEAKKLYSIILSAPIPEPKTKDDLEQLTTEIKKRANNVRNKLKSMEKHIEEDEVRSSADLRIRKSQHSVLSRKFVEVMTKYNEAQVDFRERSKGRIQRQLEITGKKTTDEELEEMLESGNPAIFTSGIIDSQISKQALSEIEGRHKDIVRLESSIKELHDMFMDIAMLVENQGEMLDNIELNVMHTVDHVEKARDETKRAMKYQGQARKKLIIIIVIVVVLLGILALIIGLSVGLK
Cav1.3 alpha1 pore-forming subunit (endogenous, INS-1 832/13 cells), P27732 1-2203 (natural protein), sequence (P27732 whole entry): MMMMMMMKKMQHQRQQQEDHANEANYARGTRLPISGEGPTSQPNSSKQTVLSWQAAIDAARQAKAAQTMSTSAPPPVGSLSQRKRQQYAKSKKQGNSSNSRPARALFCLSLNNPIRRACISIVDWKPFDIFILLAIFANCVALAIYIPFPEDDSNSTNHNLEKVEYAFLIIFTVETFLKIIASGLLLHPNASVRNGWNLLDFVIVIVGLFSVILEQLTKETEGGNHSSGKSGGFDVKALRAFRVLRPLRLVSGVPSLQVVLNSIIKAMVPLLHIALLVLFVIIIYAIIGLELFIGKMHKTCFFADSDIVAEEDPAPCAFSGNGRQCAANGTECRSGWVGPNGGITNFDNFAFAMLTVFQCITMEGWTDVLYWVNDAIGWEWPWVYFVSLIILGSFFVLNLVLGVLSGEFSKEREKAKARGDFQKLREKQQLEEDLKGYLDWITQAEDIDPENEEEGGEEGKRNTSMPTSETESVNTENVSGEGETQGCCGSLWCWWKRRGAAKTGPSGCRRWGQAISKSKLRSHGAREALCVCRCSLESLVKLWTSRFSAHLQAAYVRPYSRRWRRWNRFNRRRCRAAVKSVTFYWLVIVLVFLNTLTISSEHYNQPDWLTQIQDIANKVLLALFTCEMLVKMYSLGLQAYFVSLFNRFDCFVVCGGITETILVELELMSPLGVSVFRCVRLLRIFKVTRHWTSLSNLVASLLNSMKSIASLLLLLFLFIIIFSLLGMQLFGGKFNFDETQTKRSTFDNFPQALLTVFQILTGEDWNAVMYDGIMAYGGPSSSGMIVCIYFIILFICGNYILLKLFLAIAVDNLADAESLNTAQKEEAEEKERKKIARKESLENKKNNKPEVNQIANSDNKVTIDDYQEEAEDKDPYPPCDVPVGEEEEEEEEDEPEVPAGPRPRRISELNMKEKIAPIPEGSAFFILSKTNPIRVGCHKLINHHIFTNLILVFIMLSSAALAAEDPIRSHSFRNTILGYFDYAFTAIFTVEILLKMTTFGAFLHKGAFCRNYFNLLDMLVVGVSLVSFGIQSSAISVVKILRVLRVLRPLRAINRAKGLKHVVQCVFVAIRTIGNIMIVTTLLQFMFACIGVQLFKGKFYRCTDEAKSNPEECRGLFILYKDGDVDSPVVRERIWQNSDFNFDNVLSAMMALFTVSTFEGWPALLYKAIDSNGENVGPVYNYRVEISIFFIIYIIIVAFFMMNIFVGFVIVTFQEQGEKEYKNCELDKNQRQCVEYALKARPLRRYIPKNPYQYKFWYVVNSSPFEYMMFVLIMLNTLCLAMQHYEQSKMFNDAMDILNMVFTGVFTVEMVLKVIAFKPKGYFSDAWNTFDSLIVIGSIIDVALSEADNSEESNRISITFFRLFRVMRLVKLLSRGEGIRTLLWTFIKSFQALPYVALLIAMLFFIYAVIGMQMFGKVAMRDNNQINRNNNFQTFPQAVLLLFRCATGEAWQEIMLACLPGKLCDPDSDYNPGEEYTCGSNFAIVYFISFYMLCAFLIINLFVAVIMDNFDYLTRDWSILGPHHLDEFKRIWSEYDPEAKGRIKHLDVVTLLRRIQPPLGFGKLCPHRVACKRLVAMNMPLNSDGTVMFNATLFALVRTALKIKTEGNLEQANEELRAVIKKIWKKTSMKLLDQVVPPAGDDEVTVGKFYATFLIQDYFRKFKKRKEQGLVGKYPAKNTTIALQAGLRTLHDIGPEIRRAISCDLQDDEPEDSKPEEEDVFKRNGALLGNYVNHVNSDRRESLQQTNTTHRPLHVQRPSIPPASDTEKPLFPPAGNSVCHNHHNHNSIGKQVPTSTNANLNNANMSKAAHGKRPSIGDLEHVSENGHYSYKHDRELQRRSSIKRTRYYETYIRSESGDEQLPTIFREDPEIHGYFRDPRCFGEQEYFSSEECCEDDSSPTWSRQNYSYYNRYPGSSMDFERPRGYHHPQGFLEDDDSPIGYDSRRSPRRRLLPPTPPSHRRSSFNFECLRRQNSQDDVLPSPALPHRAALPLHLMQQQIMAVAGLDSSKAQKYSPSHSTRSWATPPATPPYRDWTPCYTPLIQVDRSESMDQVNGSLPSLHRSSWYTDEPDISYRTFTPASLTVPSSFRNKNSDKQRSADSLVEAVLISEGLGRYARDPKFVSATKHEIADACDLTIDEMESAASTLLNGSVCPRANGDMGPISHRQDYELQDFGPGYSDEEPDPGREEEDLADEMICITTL
Cav1.3 alpha1 subunit expressed in HEK293 cells, P27732 1-2203 (natural protein), sequence (P27732 whole entry): as above
Syn-3 expressed in HEK293 cells, sequence (Q08849 whole entry, the tested form may be a part): as the sequence (Q08849 whole entry) above

As to “Cav1.3 alpha1 pore-forming subunit (endogenous, INS-1 832/13 cells), P27732 1-2203 (natural protein)”, in test [1], the percent recovery of total lysate input, basal (0.8 mM glucose) was 1.9% and the percent recovery of total lysate input, stimulated (16.7 mM glucose + 10 nM GLP-1) was found to be 15%. In test [2], the percent recovery of total lysate input, basal (0.8 mM glucose) was 1.9 to 2% and the percent recovery of total lysate input, stimulated (16.7 mM glucose + 10 nM GLP-1) was found to be 2%.
“Cav1.3 alpha1 subunit expressed in HEK293 cells, P27732 1-2203 (natural protein)”: the percent recovery of total lysate input is 18.1% in test [3], 7.8% in test [4], 25.7% in test [5] and 5.3% in test [6].
For “Cav2.3 alpha1 pore-forming subunit (endogenous, INS-1 832/13 cells), Q07652 1-2222 (natural protein)”, in test [2], the percent recovery of total lysate input, basal (0.8 mM glucose) is 1.7% and the percent recovery of total lysate input, stimulated (16.7 mM glucose + 10 nM GLP-1) turned out to be 8.1%.
In the case of “Cav2.3 alpha1 subunit expressed in HEK293 cells, Q07652 1-2222 (natural protein)”, the percent recovery of total lysate input stood at 2.2% in test [3], 6.1% in test [4], 8.4% in test [5] and 20.1% in test [6].
